Assay results reported in patent US20140186354A1 (published 2014).

T1: human recombinant HER4 ECD (human, UniProt Q15303 26-651)
T1 sequence: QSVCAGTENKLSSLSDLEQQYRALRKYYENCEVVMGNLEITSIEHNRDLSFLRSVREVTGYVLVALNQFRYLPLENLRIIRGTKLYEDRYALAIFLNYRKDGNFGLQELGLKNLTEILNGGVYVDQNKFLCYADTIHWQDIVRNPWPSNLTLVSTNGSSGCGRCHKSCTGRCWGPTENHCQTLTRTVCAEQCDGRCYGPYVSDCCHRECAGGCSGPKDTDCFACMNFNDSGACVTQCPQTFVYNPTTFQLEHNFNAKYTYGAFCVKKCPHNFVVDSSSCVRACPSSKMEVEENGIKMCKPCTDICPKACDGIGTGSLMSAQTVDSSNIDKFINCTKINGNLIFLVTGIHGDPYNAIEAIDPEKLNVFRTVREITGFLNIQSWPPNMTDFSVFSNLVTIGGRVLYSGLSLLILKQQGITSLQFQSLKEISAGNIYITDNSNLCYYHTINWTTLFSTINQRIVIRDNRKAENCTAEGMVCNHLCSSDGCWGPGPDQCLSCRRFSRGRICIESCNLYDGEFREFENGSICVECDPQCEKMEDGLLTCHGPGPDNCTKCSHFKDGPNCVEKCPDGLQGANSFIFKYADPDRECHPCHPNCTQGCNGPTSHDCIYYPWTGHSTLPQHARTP

T2: HER4 ECD-HRG complex (human, UniProt Q15303 26-651)
T2 construct: HER4 ECD pre-incubated with a 5-fold molar excess of Heregulin; also called Her-4 ECD/Heregulin complex
T2 sequence 1: T1 sequence
T2 sequence 2: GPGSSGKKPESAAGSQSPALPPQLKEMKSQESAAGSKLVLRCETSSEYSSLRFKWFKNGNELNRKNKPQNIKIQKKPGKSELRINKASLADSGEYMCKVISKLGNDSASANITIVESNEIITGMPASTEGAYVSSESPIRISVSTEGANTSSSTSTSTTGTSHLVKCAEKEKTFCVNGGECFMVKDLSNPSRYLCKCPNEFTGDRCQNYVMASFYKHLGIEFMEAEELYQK

B1: Recombinant Human Heregulin fragment (HRG) (ligand)
chain: T2 sequence 2
notes: also called Heregulin beta (HRG)
B2: anti-HER3/HER4 antibody M-05-74 (antibody, V domains shown)
VH: QVQLQQSGAELAKPGASVKMSCKTSGYTLTDYWIHWVKQRPGQGLEWIGYINPYTGYTESNQKFKDKATLTADKSSNTAYIQLSSLTSEDSAVYYCARPYYYGDYWGQGTTLTVSS
VL: QIVLTQSPAIMSASPGERVTITCSASSSVSYMHWFQQKPGTSPKLLIYSTSNLASGVPARFSGSGSGTSYSLTISRMEAEDAATYYCQQRSSYPFTFGSGTKLEIK
notes: Murine monoclonal antibody from hybridoma (supernatant or purified full length); also called M-074; M-5-74

Legend:
[1] = molecular target: T3, human recombinant HER3 ECD (human, UniProt P21860 20-643); test: complex formed in solution before SPR
T3 construct: 68 kDa; without ligand said to be in the closed conformation; also called human-Her3-ECD

[2] = molecular target: T1, human recombinant HER4 ECD; test: complex formed in solution before SPR
HER3 ECD-HRG complex = molecular target: T4, HER3 ECD-HRG complex (human, UniProt P21860 20-643); test: SPR Biacore T100
T4 construct: HER3 ECD pre-incubated with a 5-fold molar excess of Heregulin (open conformation); also called Her-3 ECD/Heregulin complex

HER4 ECD-HRG complex = molecular target: T2, HER4 ECD-HRG complex; test: SPR Biacore T100

T4 sequence (P21860 20-643 limits assumed, one chain of several): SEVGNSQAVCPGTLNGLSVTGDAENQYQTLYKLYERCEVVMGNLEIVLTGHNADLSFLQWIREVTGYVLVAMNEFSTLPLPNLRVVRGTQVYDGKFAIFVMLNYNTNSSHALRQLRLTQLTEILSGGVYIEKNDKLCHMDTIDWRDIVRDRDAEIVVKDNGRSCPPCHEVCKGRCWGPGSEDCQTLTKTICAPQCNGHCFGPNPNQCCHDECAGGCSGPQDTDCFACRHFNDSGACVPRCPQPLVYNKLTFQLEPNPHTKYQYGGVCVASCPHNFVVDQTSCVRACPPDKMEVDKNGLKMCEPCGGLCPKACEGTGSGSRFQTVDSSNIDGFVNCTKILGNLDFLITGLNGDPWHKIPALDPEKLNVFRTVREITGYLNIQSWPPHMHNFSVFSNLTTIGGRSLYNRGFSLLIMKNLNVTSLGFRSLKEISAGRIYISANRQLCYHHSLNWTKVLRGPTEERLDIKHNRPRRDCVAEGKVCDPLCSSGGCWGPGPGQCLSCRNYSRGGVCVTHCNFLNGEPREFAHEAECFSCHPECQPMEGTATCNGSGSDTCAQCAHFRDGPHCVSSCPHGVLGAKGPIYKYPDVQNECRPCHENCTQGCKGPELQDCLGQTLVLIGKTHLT
T3 sequence (P21860 20-643): as the sequence (P21860 20-643 limits assumed, one chain of several) above

Binder | binding result [1] | binding result [2] | ratio Ka(+Heregulin)/Ka(-Heregulin), against HER3-ECD (HER3 ECD-HRG complex) | ratio MR(+Heregulin)/MR(-Heregulin), against HER3-ECD (HER3 ECD-HRG complex) | ratio Ka(+Heregulin)/Ka(-Heregulin), against HER4-ECD (HER4 ECD-HRG complex) | ratio MR(+Heregulin)/MR(-Heregulin), against HER4-ECD (HER4 ECD-HRG complex)
B1 | binds | binds | – | – | – | –
B2 | – | – | 4.85 | 3 | 23.9 | 6
